The values that follow come from US20170073690A1 (CEMM FORSCHUNGZENTRUM FUER MOLEKULARE MEDIZIN, published 2017).

T1: SLC38A2 (human, UniProt Q96QD8 1-506)
T1 construct: N-terminally SII-HA tagged bait
T1 sequence (looked up): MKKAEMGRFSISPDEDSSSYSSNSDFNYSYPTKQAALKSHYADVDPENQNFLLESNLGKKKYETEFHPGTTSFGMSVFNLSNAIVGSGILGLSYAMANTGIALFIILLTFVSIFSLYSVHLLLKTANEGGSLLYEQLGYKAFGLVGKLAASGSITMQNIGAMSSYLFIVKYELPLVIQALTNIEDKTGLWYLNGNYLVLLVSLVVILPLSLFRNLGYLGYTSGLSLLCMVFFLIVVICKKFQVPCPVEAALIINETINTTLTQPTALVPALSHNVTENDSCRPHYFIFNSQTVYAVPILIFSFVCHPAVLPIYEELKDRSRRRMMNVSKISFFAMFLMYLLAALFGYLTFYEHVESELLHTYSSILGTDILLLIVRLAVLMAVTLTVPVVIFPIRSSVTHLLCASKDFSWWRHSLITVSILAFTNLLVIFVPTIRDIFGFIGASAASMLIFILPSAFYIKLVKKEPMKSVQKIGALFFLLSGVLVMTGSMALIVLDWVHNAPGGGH

B1: SLC38A1 (other)
chain: MMHFKSGLELTELQNMTVPEDDNISNDSNDFTEVENGQINSKFISDRESRRSLTNSHLEKKKCDEYIPGTTSLGMSVFNLSNAIMGSGILGLAFALANTGILLFLVLLTSVTLLSIYSINLLLICSKETGCMVYEKLGEQVFGTTGKFVIFGATSLQNTGAMLSYLFIVKNELPSAIKFLMGKEETFSAWYVDGRVLVVIVTFGIILPLCLLKNLGYLGYTSGFSLSCMVFFLIVVIYKKFQIPCIVPELNSTISANSTNADTCTPKYVTFNSKTVYALPTIAFAFVCHPSVLPIYSELKDRSQKKMQMVSNISFFAMFVMYFLTAIFGYLTFYDNVQSDLLHKYQSKDDILILTVRLAVIVAVILTVPVLFFTVRSSLFELAKKTKFNLCRHTVVTCILLVVINLLVIFIPSMKDIFGVVGVTSANMLIFILPSSLYLKITDQDGDKGTQRIWAALFLGLGVLFSLVSIPLVIYDWACSSSSDEGH
notes: N-terminally SII-HA tagged bait
B2: full length SLC38A9 with motif 38RPF40 mutated to alanine (other)
chain: MANMNSDSRHLGTSEVDHERDPGPMNIQFEPSDLRSKAAACIEPTNIVNVNHVIQRVSDHASAMNKRIHYYSRLTTPADKALIAPDHVVPAPEECYVYSPLGSAYKLQSYTEGYGKNTSLVTIFMIWNTMMGTSILSIPWGIKQAGFTTGMCVIILMGLLTLYCCYRVVKSRTMMFSLDTTSWEYPDVCRHYFGSFGQWSSLLFSLVSLIGAMIVYWVLMSNFLFNTGKFIFNFIHHINDTDTILSTNNSNPVICPSAGSGGHPDNSSMIFYANDTGAQQFEKWWDKSRTVPFYLVGLLLPLLNFKSPSFFSKFNILGTVSVLYLIFLVTFKAVRLGFHLEFHWFIPTEFFVPEIRFQFPQLTGVLTLAFFIHNCIITLLKNNKKQENNVRDLCIAYMLVTLTYLYIGVLVFASFPSPPLSKDCIEQNFLDNFPSSDTLSFIARIFLLFQMMTVYPLLGYLARVQLLGHIFGDIYPSIFHVLILNLIIVGAGVIMACFYPNIGGIIRYSGAACGLAFVFIYPSLIYIISLHQEERLTWPKLIFHVFIIILGVANLIVQFFM
notes: also called 38RPF40 mutant (full length); not shown: N-terminal HA-containing tag
B3: full length SLC38A9 with motif 70YYSR73 mutated to alanine (other)
chain: B2 chain with A38R, A39P, A40F, Y70A, Y71A, S72A, R73A
notes: also called 70YYSR73 mutant (full length); not shown: N-terminal HA-containing tag
B4: full length SLC38A9 with motif 85PDH87 mutated to alanine (other)
chain: B2 chain with A38R, A39P, A40F, P85A, D86A, H87A
notes: also called 85PDH87 mutant (full length); not shown: N-terminal HA-containing tag
B5: SLC38A9 N-terminal cytoplasmic tail deletion construct (amino acids 1-111, or amino acids 1-112) (other)
chain: MANMNSDSRHLGTSEVDHERDPGPMNIQFEPSDLRSKRPFCIEPTNIVNVNHVIQRVSDHASAMNKRIHYYSRLTTPADKALIAPDHVVPAPEECYVYSPLGSAYKLQSYTE
notes: also called cytoplasmic region of SLC38A9; not shown: N-terminal HA-containing tag (Strep-HA, vector pTO-SII-HA-GW)
B6: SLC38A9 cytoplasmic region with motif 85PDH87 mutated to alanine (other)
chain: B5 chain with P85A, D86A, H87A
notes: also called 85PDH87 mutant (cytoplasmic region); not shown: N-terminal HA-containing tag
B7: SLC38A9 cytoplasmic region with motif 38RPF40 mutated to alanine (other)
chain: B5 chain with R38A, P39A, F40A
notes: also called 38RPF40 mutant (cytoplasmic region); not shown: N-terminal HA-containing tag
B8: SLC38A9 cytoplasmic region with motif 70YYSR73 mutated to alanine (other)
chain: B5 chain with Y70A, Y71A, S72A, R73A
notes: also called 70YYSR73 mutant (cytoplasmic region); not shown: N-terminal HA-containing tag
B9: RAGD (enzyme, human, UniProt Q9NQL2 1-400, looked up)
chain: MSQVLGKPQPQDEDDAEEEEEEDELVGLADYGDGPDSSDADPDSGTEEGVLDFSDPFSTEVKPRILLMGLRRSGKSSIQKVVFHKMSPNETLFLESTNKICREDVSNSSFVNFQIWDFPGQIDFFDPTFDYEMIFRGTGALIFVIDSQDDYMEALARLHLTVTRAYKVNTDINFEVFIHKVDGLSDDHKIETQRDIHQRANDDLADAGLEKIHLSFYLTSIYDHSIFEAFSKVVQKLIPQLPTLENLLNIFISNSGIEKAFLFDVVSKIYIATDSTPVDMQTYELCCDMIDVVIDISCIYGLKEDGAGTPYDKESTAIIKLNNTTVLYLKEVTKFLALVCFVREESFERKGLIDYNFHCFRKAIHEVFEVRMKVVKSRKVQNRLQKKKRATPNGTPRVLL
notes: Named in the results only as one of the four RAG GTPases; also called RAG GTPase D

For one assay, the target named is LAMTOR4 (human, UniProt Q0VGL1 1-99). Nature of the assay: TAP-LC-MS/MS, SII-HA-tagged bait, HEK293 Flp-In TREx cells. The procedure: (§1) Tandem affinity STREP-HA purifications were performed as previously described³. In brief, cells were stimulated with doxycycline/tetracycline for 24 h to induce expression of SII-HA-tagged bait proteins. Induction of SII-HA-LAMTOR 3 was combined with 9 h starvation in serum free medium. Protein complexes were isolated by TAP using streptavidin agarose followed by elution with biotin, and a second purification step using HA-agarose beads. Proteins were eluted with 100 mM formic acid, neutralized with triethylammonium bicarbonate (TEAB) and digested with trypsin, and the peptides were analysed by LC-MS/MS.

The next assay addresses LAMTOR5 (human, UniProt O43504 1-91). The description is as above. The procedure: as §1
For assay [1], the target named is T2, LAMTOR3 (human, UniProt Q9UHA4 1-124, limits assumed).
T2 construct: also called SII-HA-LAMTOR 3
T2 sequence (Q9UHA4 whole entry): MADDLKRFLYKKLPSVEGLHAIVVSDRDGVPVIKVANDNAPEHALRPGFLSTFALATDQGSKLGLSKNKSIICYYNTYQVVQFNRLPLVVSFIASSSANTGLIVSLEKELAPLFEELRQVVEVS
In words: anti-HA co-IP of tagged full length point mutant from HEK293T, immunoblot (FIG. 9C). (In western blotting, separated proteins are transferred to a membrane and probed.)

Assay [2] deals with T3, RAGA (human, UniProt Q7L523 1-313).
T3 construct: Endogenous, or N-terminally tagged as bait; RAG GTPases act as heterodimers of RAGA/B with RAGC/D; also called RAG GTPase A
T3 sequence (Q7L523 whole entry): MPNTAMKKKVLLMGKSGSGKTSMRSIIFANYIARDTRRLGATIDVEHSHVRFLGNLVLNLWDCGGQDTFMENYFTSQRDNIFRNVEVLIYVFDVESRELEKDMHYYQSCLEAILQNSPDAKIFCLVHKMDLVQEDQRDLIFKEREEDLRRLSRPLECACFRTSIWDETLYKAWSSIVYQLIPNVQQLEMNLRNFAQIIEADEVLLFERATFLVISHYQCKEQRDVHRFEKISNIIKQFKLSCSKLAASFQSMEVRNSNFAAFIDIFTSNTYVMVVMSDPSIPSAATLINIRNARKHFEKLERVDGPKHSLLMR
The assay is described as above.

Assay [3] deals with T4, RAGC (human, UniProt Q9HB90 1-399).
T4 construct: Endogenous, or N-terminally tagged as bait; also called RAG GTPase C
T4 sequence (Q9HB90 whole entry): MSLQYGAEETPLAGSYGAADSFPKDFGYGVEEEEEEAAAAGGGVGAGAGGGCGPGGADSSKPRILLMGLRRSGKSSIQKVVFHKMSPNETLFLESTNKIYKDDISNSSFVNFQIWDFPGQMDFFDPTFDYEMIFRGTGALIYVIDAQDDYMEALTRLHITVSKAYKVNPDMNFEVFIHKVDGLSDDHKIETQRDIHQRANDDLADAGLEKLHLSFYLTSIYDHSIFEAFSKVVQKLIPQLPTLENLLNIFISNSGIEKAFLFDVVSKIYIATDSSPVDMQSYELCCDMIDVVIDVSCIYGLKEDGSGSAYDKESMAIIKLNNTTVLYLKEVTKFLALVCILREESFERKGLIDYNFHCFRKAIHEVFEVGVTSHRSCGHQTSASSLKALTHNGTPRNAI
The assay is described as above.

Assay [4] deals with T5, LAMTOR1 (human, UniProt Q6IAA8 2-161).
T5 construct: Endogenous in HEK293/HEK293T cells, or C-terminally tagged (V5 or SII-HA) when used as bait
T5 sequence (Q6IAA8 2-161 limits assumed): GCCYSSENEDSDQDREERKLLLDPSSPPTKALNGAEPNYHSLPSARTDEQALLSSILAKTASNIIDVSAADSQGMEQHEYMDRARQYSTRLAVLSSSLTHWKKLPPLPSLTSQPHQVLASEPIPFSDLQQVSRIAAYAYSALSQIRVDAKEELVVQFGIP
Described as above.

Assay [5] addresses T3, RAGA. In words: anti-HA co-IP of tagged deletion construct from HEK293T, immunoblot (FIG. 2D). The source says: (§2) Proteins filtered using SAINT³⁵ that interacted with at least five bait proteins were retained. Previously published interactors of the Ragulator complex and RAG GTPases that were also detected are highlighted. b, Tabular view of spectral counts (maximum of biological replicate) and sequence coverage (percentage) of the core Ragulator network and published interactors detected. c HEK293T cells were transfected with the indicated constructs or empty vector (−). […] Anti-HA immunoprecipitates and cell extracts were analysed by immunoblot with the indicated antibodies. Deletion constructs are labelled with the number of the encoded amino acids (d) and point mutants with the amino acid motif substituted to alanine (e).
(§3) Cells were transfected with Polyfect (Qiagen) and used for experiments after 24 hours. For lysis, cells were resuspended in Nonidet-40 lysis buffer (1% NP-40, 50 mM Hepes pH7.4, 250 mM NaCl, 5 mM EDTA, Halt phosphatase inhibitor cocktail (ThermoScientific), one tablet of EDTA-free protease inhibitor (Roche) per 50 ml) on ice for 5 min. Lysates were cleared by centrifugation in a microcentrifuge (13000 r.p.m., 10 min, 4 C). Proteins were quantified with BCA (Pierce). […]

Assay [6] deals with T5, LAMTOR1. Described as above.
Text: as §2, §3

Assay [7] has as its target T2, LAMTOR3. In words: anti-HA co-IP of tagged point mutant from HEK293T, immunoblot (FIG. 2E).
Text: as §2
(§4) Cells were transfected with Polyfect (Qiagen) and used for experiments after 24 hours. For lysis, cells were resuspended in Nonidet-40 lysis buffer (1% NP-40, 50 mM Hepes pH7.4, 250 mM NaCl, 5 mM EDTA, Halt phosphatase inhibitor cocktail (ThermoScientific), one tablet of EDTA-free protease inhibitor (Roche) per 50 ml) on ice for 5 min. Lysates were cleared by centrifugation in a microcentrifuge (13000 r.p.m., 10 min, 4 C). Proteins were quantified with BCA (Pierce). For immunoprecipitations, lysates were precleared on Sepharose6 beads (Sigma) (40 min. with rotation, 4° C.) and then incubated either with HA- or V5-coupled beads (3 h with rotation, 4° C.) or with primary antibody and protein G-sepharose (GE healthcare) (14 h with rotation, 4° C.). Beads were recovered and washed four times with lysis buffer before analysis by SDS-PAGE and immunoblotting.

The target in assay [8] is T3, RAGA. Described as above.
Text: as §2, §4

In assay [9] the target is T4, RAGC. Described as above.
Text: as §2, §4

The target in assay [10] is T5, LAMTOR1. Described as above.
Text: as §2, §4

The target of the assay “SLC38A1” is B1. Nature of the assay: TAP-LC-MS/MS, SII-HA-tagged bait, HEK293 Flp-In TREx cells. The procedure: as §1
The next assay deals with T1, SLC38A2. The description is as above. Here is the method:
as §1

Residue numbers refer to the chain shown, from its start.

Turning to B1, the binding result with LAMTOR4 and in the assay with LAMTOR5 was “no binding” in each case.
Regarding B2, the binding result with LAMTOR3 [1], with RAGA [2], with RAGC [3] and in the assay with LAMTOR1 [4] was “no binding” each time.
For B3, the binding result with LAMTOR3 [1], in the assay with RAGA [2], in the assay with RAGC [3] and in the assay with LAMTOR1 [4] was “no binding” throughout.
In the case of B4, the binding result with LAMTOR3 [1], with RAGA [2], with RAGC [3] and with LAMTOR1 [4] was “no binding” in each case.
With B5, the binding result with RAGA [5] and with LAMTOR1 [6] was “binds” throughout.
Take B6: the binding result with LAMTOR3 [7], with RAGA [8], with RAGC [9] and with LAMTOR1 [10] was “no binding” each time.
Regarding B7, the binding result in the assay with LAMTOR3 [7], with RAGA [8], in the assay with RAGC [9] and with LAMTOR1 [10] was “no binding” throughout.
Take B8: the binding result in the assay with LAMTOR3 [7], with RAGA [8], in the assay with RAGC [9] and with LAMTOR1 [10] was “no binding” each time.
As to B9, the binding result with SLC38A1 and with SLC38A2 was “no binding” throughout.
